According to patent publication US9266937 (UNIVERSITY OF CENTRAL FLORIDA RESEARCH FOUNDATION, dated 2016):

Target: T1, IL-7R/Fc fusion protein
T1 construct: Loaded on the SPR chip; also called IL-7 receptor
Assay: SPR, IL-7R/Fc loaded chip, Scrubber2
Experimental: Fc fusion protein was determined by surface plasmon resonance (SPR). Association (Ka), Dissociation (Kd) and total binding constant (KD) were calculated using the Scrubber2 program (BioLogic Software).

T1 sequence (P16871 whole entry, the tested form may be a part): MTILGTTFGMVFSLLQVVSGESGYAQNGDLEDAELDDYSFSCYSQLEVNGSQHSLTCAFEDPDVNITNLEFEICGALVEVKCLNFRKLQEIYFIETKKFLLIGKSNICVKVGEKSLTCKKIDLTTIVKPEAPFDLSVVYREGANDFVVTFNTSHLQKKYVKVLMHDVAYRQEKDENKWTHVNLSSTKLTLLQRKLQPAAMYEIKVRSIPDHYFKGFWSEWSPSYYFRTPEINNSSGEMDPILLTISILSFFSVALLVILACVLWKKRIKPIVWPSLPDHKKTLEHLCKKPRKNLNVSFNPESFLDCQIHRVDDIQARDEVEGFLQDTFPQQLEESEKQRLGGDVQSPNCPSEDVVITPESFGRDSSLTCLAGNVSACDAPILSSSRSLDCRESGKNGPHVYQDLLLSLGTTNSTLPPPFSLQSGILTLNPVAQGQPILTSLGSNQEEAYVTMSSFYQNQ

Kd: 100 nM
B1: IL-7AT, attenuated IL-7 with Thr97 substituted by Val (ligand)
chain: DCDIEGKDGKQYESVLMVSIDQLLDSMKEIGSNCLNNEFNFFKRHICDANKEGMFLFRAARKLRQFLKMNSVGDFDLHLLKVSEGTTILLNCTGQVKGRKPAALGEAQPTKSLEENKSLKEQKKLNDLCFLKRLLQEIKTCWNKILMGTKEH
notes: also called IL-7 ligand; HMM-IL-7AT
